Here are results for two molecules from paper PMC12322040 (Nature Communications, 2025).

Test [1] deals with T1, GST-GCK WT (human, UniProt P35557 1-465).
T1 sequence (looked up): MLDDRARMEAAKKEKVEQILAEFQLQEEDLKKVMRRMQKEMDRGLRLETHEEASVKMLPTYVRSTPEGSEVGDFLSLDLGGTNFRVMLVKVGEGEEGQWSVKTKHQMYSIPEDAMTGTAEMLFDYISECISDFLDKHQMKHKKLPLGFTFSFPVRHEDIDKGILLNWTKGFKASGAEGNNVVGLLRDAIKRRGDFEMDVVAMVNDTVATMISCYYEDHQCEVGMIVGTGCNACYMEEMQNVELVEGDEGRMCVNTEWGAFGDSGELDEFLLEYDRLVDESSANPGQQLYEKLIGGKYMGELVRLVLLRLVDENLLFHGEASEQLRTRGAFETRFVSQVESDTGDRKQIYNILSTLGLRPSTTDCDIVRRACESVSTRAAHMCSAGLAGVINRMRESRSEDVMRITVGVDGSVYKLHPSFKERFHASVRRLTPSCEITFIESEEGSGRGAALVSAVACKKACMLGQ
Kind of test: pull-down.

The target in test [2] is T2, His-GCK WT (human, UniProt P35557 1-465).
T2 sequence (looked up): T1 sequence (looked up)
Description: pull-down.

B1: His-CK2α (enzyme, human, UniProt P68400 1-391, looked up)
chain: MSGPVPSRARVYTDVNTHRPREYWDYESHVVEWGNQDDYQLVRKLGRGKYSEVFEAINITNNEKVVVKILKPVKKKKIKREIKILENLRGGPNIITLADIVKDPVSRTPALVFEHVNNTDFKQLYQTLTDYDIRFYMYEILKALDYCHSMGIMHRDVKPHNVMIDHEHRKLRLIDWGLAEFYHPGQEYNVRVASRYFKGPELLVDYQMYDYSLDMWSLGCMLASMIFRKEPFFHGHDNYDQLVRIAKVLGTEDLYDYIDKYNIELDPRFNDILGRHSRKRWERFVHSENQHLVSPEALDFLDKLLRYDHQSRLTAREAMEHPYFYTVVKDQARMGSSSMPGGSTPVSSANMMSGISSVPTPSPLGPLAGSPVIAAANPLGMPVPAAAGAQQ
As for B1, in test [1], the binding result was “binds”.

B2: GST-CK2α WT phosphorylated by active His-ERK2 (enzyme, human, UniProt P68400 1-391, looked up)
chain: B1 chain
modifications: phosphothreonine at 360, phosphoserine at 362 (ERK-mediated)
With B2, the binding result in test [2] is given as “binds”.
